# From patent EP4541444A1
# Changes are numbered by the printed parent chain.
# B1: 4A-5 (VHH)
# VHH: QVQLQQSGGGSVQAGGSLRLSCTISGRTFSSYAMGWFRQRPGKEREFVAAINWSSGSTYYADSVKGRFTISRDNAKNTVYLQMNSLKPEDTAVYYCAAGYQINSGNYNFKDYEYDYWGQGTQVTVSS
# B2: 4B-4 (VHH)
# VHH: B1 VHH
# B3: 2A-1 (VHH)
# VHH: QVQLQQSGGGSVQAGGSLRLSCTISGRTLSDYTMGWFRQRPGKEREFVAAISWSGAYTKYADSVKGRFTISRDNAKNTVYLQMNSLKPEDTAVYYCAAGPTGLLSKKATPADYDYWGQGTQVTVSS
# B4: 2B-1 (VHH)
# chain: QVQLQQSGGGSVQAGGSLRLSCTISGRTLSDYTMGWFRQRPGKEREFVAAISWSGAYTKYADSVKGRFTISRDNAKNTVYLQMNSLKPEDTAVYYCAAGPTGLLSKKATPADYDYWGQGTQVTVSSQASAEAAAKEAAAKAGQVQLQQSGGGSVQAGGSLRLSCTISGRTLSDYTMGWFRQRPGKEREFVAAISWSGAYTKYADSVKGRFTISRDNAKNTVYLQMNSLKPEDTAVYYCAAGPTGLLSKKATPADYDYWGQGTQVTVSSQASAEAAAKEAAAKAGQVQLQQSGGGSVQAGGSLRLSCTISGRTLSDYTMGWFRQRPGKEREFVAAISWSGAYTKYADSVKGRFTISRDNAKNTVYLQMNSLKPEDTAVYYCAAGPTGLLSKKATPADYDYWGQGTQVTVSSQASHHHHHHC
# B5: 4B-5 (VHH)
# VHH: QVQLQESGGGLVQPGGSLRLSCAASGRTSINPYMAWFRQAPGKQREFVAAISSGGVYTYYTDSVKGRFTISRDNAKTTVYLQMNSLKPEDTAVYYCAADFRRGGNWNVDPFRYDYQYWGQGTQVTVSS
# B6: 4B-6 (VHH)
# VHH: B5 VHH with E6Q, L11S, P14A, A23T, A24I, A40R, Q44E, T61A, T77N, Q116D
# What was measured:
# [1] = molecular target: epidermal growth factor receptor (Example 4A) (UniProt P00533); experiment: SPR (Biacore), fusion on CM5 chip, EGFR 200 nM
# [2] = molecular target: EGFR (SinoBiological, 10001-H08H) (UniProt P00533); experiment: SPR (Biacore), fusion on CM5 chip, EGFR 200 nM
# [3] = molecular target: AAV9 viral particles (adeno-associated virus serotype 9); experiment: SPR (Biacore), ligand amine coupled to CM5 chip, AAV9 2E12 vp/ml
# [4] = molecular target: AAV9 viral particles (adeno-associated virus serotype 9); experiment: SPR (Biacore), biotinylated ligand on SA chip, AAV9 2E12 vp/ml
# trastuzumab-GFP = experiment: SPR (Biacore), fusion on CM5 chip, 2 µM Fc block, then trastuzumab-eGFP 1 µM
binder,measurement,setting,value
B1,Binding capacity EGFR (200 nM),[1],2350 RU
B2,Binding capacity EGFR (200 nM),[2],1900 RU
B3,AAV9 capacity (2E12 vp/ml),[3],11300 RU
B4,AAV9 capacity (2E12 vp/ml),[4],13400 RU
B5,Binding capacity trastuzumab-eGFP (1 µM),trastuzumab-GFP,4300 RU
B6,Binding capacity trastuzumab-eGFP (1 µM),trastuzumab-GFP,3910 RU
